According to PMC10765591, “Structural analysis and molecular substrate recognition properties of Arabidopsis thaliana ornithine transcarbamylase, the molecular target of phaseolotoxin produced by Pseudomonas syringae” (Frontiers in Plant Science, 2023):

Biological target: Arabidopsis thaliana ornithine transcarbamylase (Arabidopsis thaliana) (UniProt O50039)
Test: crystal structure; AtOTC co-crystallised with 20 mM ornithine or carbamoyl phosphate; HEPES 0.1 M pH 6.0, 0.3 M Li2SO4, PEG 3350, about 20°C; three subunits around a non-crystallographic three-fold axis

Arabidopsis thaliana ornithine transcarbamylase, sequence (O50039 53-375): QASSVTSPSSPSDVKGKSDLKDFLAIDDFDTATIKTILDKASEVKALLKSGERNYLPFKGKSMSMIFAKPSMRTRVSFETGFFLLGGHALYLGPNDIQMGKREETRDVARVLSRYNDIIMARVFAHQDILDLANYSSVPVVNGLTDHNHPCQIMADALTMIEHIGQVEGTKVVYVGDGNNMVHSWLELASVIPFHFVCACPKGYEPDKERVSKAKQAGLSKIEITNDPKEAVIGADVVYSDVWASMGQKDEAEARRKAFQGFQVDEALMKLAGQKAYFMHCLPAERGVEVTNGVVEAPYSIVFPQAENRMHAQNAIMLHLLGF

stoichiometry N: 3
Substance: Arabidopsis thaliana ornithine transcarbamylase (from UniProt O50039 53-375) (enzyme)
